Results published in EP0959894B1.
Where two headings read alike, the source gives them in different places.

Assays:
[1] = biological target: urokinase-type plasminogen activator (u-PA) (UniProt P00749); assay: ratio of the rate constants toward u-PA and toward t-PA
[2] = biological target: tissue plasminogen activator (t-PA) (UniProt P00750); assay: inhibition kinetics from residual enzyme activity (chromogenic assay), pseudo-first or second order conditions
[3] = biological target: tissue plasminogen activator (t-PA) (UniProt P00750); assay: ratio of the rate constants toward t-PA and toward u-PA
[4] = biological target: urokinase-type plasminogen activator (u-PA) (UniProt P00749); assay: ratio of the second order rate constants for inhibition
[5] = biological target: tissue plasminogen activator (t-PA) (UniProt P00750); assay: inhibition kinetics from residual enzyme activity (chromogenic assay), pseudo-first or second order conditions; remark: listed apart in the source
[6] = biological target: urokinase-type plasminogen activator (u-PA) (UniProt P00749); assay: as above
[7] = biological target: tissue plasminogen activator (t-PA) (UniProt P00750); assay: ratio of selectivities from second order rate constants for inhibition
[8] = biological target: urokinase-type plasminogen activator (u-PA) (UniProt P00749); assay: inhibition kinetics from residual enzyme activity (chromogenic assay), pseudo-first or second order conditions; remark: listed apart in the source
[9] = biological target: urokinase-type plasminogen activator (u-PA) (UniProt P00749); assay: ratio of selectivities from second order rate constants for inhibition
[10] = biological target: urokinase-type plasminogen activator (u-PA) (UniProt P00749); assay: ratio of second order rate constants for inhibition

Chain of tissue plasminogen activator (t-PA) (P00750 36-562 limits assumed): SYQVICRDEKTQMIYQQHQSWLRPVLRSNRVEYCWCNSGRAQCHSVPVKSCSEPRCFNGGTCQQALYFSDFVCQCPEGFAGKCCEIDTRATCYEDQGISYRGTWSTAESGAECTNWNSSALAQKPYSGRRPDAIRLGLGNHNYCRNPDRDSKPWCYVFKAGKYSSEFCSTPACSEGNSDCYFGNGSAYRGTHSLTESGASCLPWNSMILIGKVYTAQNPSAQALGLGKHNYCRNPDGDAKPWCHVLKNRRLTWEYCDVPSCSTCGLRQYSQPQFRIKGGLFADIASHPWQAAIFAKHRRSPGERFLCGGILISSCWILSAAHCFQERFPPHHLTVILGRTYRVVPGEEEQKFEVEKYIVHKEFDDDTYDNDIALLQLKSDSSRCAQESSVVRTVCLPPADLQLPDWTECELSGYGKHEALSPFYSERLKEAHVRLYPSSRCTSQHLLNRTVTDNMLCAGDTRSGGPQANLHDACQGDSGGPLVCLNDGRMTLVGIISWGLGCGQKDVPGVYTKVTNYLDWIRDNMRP

Substance	t-PA/u-PA Selectivity (as headed; the value is the u-PA/t-PA ratio) [1]	second order rate constant for inhibition [2]	t-PA/u-PA Selectivity [3]	fold specificity toward u-PA over t-PA [4]	second order rate constant for inhibition [5]	second order rate constant for inhibition [6]	fold gain of t-PA selectivity against the P3 arginine variant of PAI-1 [7]	fold gain of t-PA/u-PA selectivity against wild-type PAI-1 [7]	second order rate constant for inhibition [8]	fold gain of u-PA/t-PA selectivity against wild type PAI-1 [9]	fold reversal in specificity toward t-PA against wild type PAI-1 [7]	fold reduction of activity against wild type PAI-1 [10]
Wild type PAI-1 (recombinant human plasminogen activator inhibitor type 1) (from UniProt P05121 24-402)	11	1.6e+06 M⁻¹ s⁻¹	0.08	11.9 fold	1.8e+06 M⁻¹ s⁻¹	1.9e+07 M⁻¹ s⁻¹	–	–	–	–	–	–
PAI-1/P4Q,P3R (from UniProt P05121 24-402)	–	1.4e+06 M⁻¹ s⁻¹	48	–	–	–	3.5 fold	600 fold	29000 M⁻¹ s⁻¹	–	–	–
PAI-1/P4Q (from UniProt P05121 24-402)	–	1.6e+06 M⁻¹ s⁻¹	0.08	–	–	–	–	–	1.9e+07 M⁻¹ s⁻¹	–	–	–
PAI-1/UK1 (from UniProt P05121 24-402)	69	–	–	–	90000 M⁻¹ s⁻¹	6.2e+06 M⁻¹ s⁻¹	–	–	–	7 fold	–	–
PAI-1/P3R (from UniProt P05121 24-402)	–	1.4e+06 M⁻¹ s⁻¹	14	–	–	–	–	–	100000 M⁻¹ s⁻¹	–	170 fold	190 fold
